Experimental findings from patent US20250145977A1 (THERIPION, published 2025) are described below.

This assay addresses T1, Human CD40 ligand (BioLegend) (human, UniProt P29965 113-261, limits assumed).
T1 construct: Coated on the ELISA plate at 2 ug/ml; also called CD154; gp39
T1 sequence (looked up): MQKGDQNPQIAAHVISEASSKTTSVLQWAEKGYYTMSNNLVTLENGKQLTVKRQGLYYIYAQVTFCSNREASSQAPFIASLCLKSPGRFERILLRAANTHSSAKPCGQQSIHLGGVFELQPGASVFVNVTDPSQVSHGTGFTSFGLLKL
Briefly: ELISA on plate-immobilized human CD40 ligand (2 ug/ml coat); serial dilutions of HEK293 transfection supernatant; detection with HRP goat anti-human IgG Fc; x axis is fold dilution, no concentration given. A general note: ELISA stands for enzyme-linked immunosorbent assay.

B1: hVK3LP-[hCD40EC E64Y-K81T-P85Y]-(g4s)4-[SSShinge-P238S Fc]-NGS-[PON1 Q192K] (Fc fusion)
chain: EPPTACREKQYLINSQCCSLCQPGQKLVSDCTEFTETECLPCGYSEFLDTWNRETHCHQHTYCDYNLGLRVQQKGTSETDTICTCEEGWHCTSEACESCVLHRSCSPGFGVKQIATGVSDTICEPCPVGFFSNVSSAFEKCHPWTSCETKDLVVQQAGTNKTDVVCGPDLSGGGGSGGGGSGGGGSGGGGSTGLEPKSSDKTHTSPPSPAPELLGGSSVFLFPPKPKDTLMISRTPEVTCVVVDVSHEDPEVKFNWYVDGVEVHNAKTKPREEQYNSTYRVVSVLTVLHQDWLNGKEYKCKVSNKALPASIEKTISKAKGQPREPQVYTLPPSRDELTKNQVSLTCLVKGFYPSDIAVEWESNGQPENNYKTTPPVLDSDGSFFLYSKLTVDKSRWQQGNVFSCSVMHEALHNHYTQKSLSLSPGKVDGASSPVNVSSPSVQDILFRNHQSSYQTRLNALREVQPVELPNCNLVKGIETGSEDLEILPNGLAFISSGLKYPGIKSFNPNSPGKILLMDLNEEDPTVLELGITGSKFDVSSFNPHGISTFTDEDNAMYLLVVNHPDAKSTVELFKFQEEEKSLLHLKTIRHKLLPNLNDIVAVGPEHFYGTNDHYFLDPYLKSWEMYLGLAWSYVVYYSPSEVRVVAEGFDFANGINISPDGKYVYIAELLAHKIHVYEKHANWTLTPLKSLDFNTLVDNISVDPETGDLWVGCHPNGMKIFFYDSENPPASEVLRIQNILTEEPKVTQVYAENGTVLQGSTVASVYKGKLLIGTVFHKALYCEL
notes: Tested as unpurified HEK293 transfection supernatant; also called CD40TM-Fc-P1-K; CD40-Fc-PON1 fusion protein
On to B1, for which the binding result is listed as “binds”.

B2: [hCD40 EC]-(g4s)4-[SSShinge-P238S Fc] (wild-type CD40-Fc) (Fc fusion)
chain: EPPTACREKQYLINSQCCSLCQPGQKLVSDCTEFTETECLPCGESEFLDTWNRETHCHQHKYCDPNLGLRVQQKGTSETDTICTCEEGWHCTSEACESCVLHRSCSPGFGVKQIATGVSDTICEPCPVGFFSNVSSAFEKCHPWTSCETKDLVVQQAGTNKTDVVCGPDLSGGGGSGGGGSGGGGSGGGGSTGLEPKSSDKTHTSPPSPAPELLGGSSVFLFPPKPKDTLMISRTPEVTCVVVDVSHEDPEVKFNWYVDGVEVHNAKTKPREEQYNSTYRVVSVLTVLHQDWLNGKEYKCKVSNKALPASIEKTISKAKGQPREPQVYTLPPSRDELTKNQVSLTCLVKGFYPSDIAVEWESNGQPENNYKTTPPVLDSDGSFFLYSKLTVDKSRWQQGNVFSCSVMHEALHNHYTQKSLSLSPGK
notes: Tested as HEK293 transfection supernatant; also called CD40WT-Fc
For B2, the binding result was “binds”.
